# In patent publication US20190127480A1:
# B1: H1H5756B (antibody, human IgG1, V domains shown)
# VH: EVQLVESGGGVVQPGRSLRLSCTASGFPFSRYGMHWVRQAPGKGLEWVTFIWYDGSNKYYADSAKGRFTITRDNSKNTVYLQMDSLRADDTAVYYCVRDQAALYYFDSWGQGTLVTVSS
# VL: DIQMTQSPSSVSASVGDRVTITCRASQGISRWLAWYQQKPGKAPKLLISAASSLQSGVPSRFSGSGSGTDFTLTISGLQPEDFATYYCQKANSFPFTFGPGTKLEIKR
# Target: human CD3 expressed on cells (Jurkat cells; human T-cells of PBMC) (human) (UniProt P09693)
# Test: cell-based or functional assay
# Sequence of human CD3 expressed on cells (Jurkat cells; human T-cells of PBMC) (human) (chain, as listed by the source, chain 1 of 4): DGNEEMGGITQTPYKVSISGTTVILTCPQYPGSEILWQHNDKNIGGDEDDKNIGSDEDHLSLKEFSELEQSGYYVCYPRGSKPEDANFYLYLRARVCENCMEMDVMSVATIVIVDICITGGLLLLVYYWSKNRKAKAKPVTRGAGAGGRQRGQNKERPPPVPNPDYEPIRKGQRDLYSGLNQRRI
# Sequence of human CD3 expressed on cells (Jurkat cells; human T-cells of PBMC) (human) (chain, as listed by the source, chain 2 of 4): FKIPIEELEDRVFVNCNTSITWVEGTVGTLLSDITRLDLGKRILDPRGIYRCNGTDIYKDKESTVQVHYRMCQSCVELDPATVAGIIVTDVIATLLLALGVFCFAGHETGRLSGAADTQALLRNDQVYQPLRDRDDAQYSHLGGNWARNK
# Sequence of human CD3 expressed on cells (Jurkat cells; human T-cells of PBMC) (human) (P09693 23-182, chain 3 of 4): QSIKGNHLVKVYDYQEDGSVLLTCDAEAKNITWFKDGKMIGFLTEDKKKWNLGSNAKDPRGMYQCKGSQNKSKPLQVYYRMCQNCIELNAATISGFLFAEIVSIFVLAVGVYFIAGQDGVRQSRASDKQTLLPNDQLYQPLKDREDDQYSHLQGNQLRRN
# Sequence of human CD3 expressed on cells (Jurkat cells; human T-cells of PBMC) (human) (P20963 22-164, chain 4 of 4): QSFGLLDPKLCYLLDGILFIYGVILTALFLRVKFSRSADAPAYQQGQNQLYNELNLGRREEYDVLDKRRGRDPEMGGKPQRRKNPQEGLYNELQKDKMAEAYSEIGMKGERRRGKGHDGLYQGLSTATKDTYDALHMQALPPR
binder,measurement,value
B1,U937 Cytotoxicity Human T-cells,76.9 pM
